Assay results published in the DeepSol protein solubility set.

Assay: soluble on expression in E. coli; label from the status in PepcDB or PDB records
For “MSQVSTEFIPTRIAILTVSNRRGEEDDTSGHYLRDSAQEAGHHVVDKAIVKENRYAIRAQVSAWIASDDVQVVLITGGTGLTEGDQAPEALLPLFDREVEGFGEVFRMLSFEEIGTSTLQSRAVAGVANKTLIFAMPGSTKACRTAWENIIAPQLDARTRPCNFHPHLKK”, the “soluble on expression in E. coli” value was “soluble”.
In the case of “MSLIIAIQGGMAVGKTTALKIIEKVYPKIAISFEDISPVVDKINKHQLDNNKLDDYCEIQQLFIQHERDRYELVRDNEIVLMDYGAEEIAFYTQYFPKVAGYSWTLPSNLLLEVNRLKECFADYIIFLDADKTVLYQRQKNDFNRRRHFFKWYTHHLLPAKKHYLDTFSNVIHINTNHLNAEEVAEKIIDIIRKLTEGHHHHHH”, the “soluble on expression in E. coli” value is reported as “soluble”.
For “MSLAIVAKRTIMSLFSDVDDVYSHQVRIVLAEKGVNVEILAVKQDEPGADLLSINPYGTVPTLIDRELVLYEARIIMEYLDERFPHPPLLPVYPVARAEARKMMHRIEQDWYYLMNAILREESVEQARANLLESLTSLDPVFADKPYFLSDEFSLLDCALAPLLWRLPKLGLEIAPNFKGIISYMQRVFKRDSFQTSLTDAERQIRAAEGHHHHHH”, the “soluble on expression in E. coli” value was “soluble”.
In the case of “MTLTELRYIVAVAQERHFGRAARRCFVSQPTLSIAIKKLEEELAVSLFDRSSNDIITTEAGERIVAQARKVLEEAELIRHLANEEQNELEGAFKLGLIFTVAPYLLPKLIVSLRRTAPKMPLMLEENYTHTLTESLKRGDVDAIIVAEPFQEPGIVTEPLYDEPFFVIVPKGHSFEELDAVSPRMLGEEQVLLLTEGNCMRDQVLSSCSELAAKQRIQGLTNTLQGSSINTIRHMVASGLAISVLPATALTENDHMLFSIIPFEGTPPSRRVVLAYRRNFVRPKALSAMKAAIMQSQLHGVSFICD”, the “soluble on expression in E. coli” value is reported as “soluble”.
With “MQSPPHDPASALAIRNHYRQSQSRAARLRLLVDTGQELIQLPPEAMRKCVLQRACAFVAMDHGLLLEWGADNGVQTTARHGSKERLSTLETTADPLAIGPQWLERPGTHLPCVLLLPLRGADEGSFGTLVLANSVAISAPDGEDIESLQLLATLLAAHLENNRLLEALVARDRT” the “soluble on expression in E. coli” value was “not soluble”.
With “MINIAVDNSIKITIETTVNAPIDMVWEAWTEPEHIKSWNHASDDWHTTEAKNDLRVGGRFVSKMEAKDGSFGFDFGGTYNKVRLYEFISYIMDDDRSVEITFKPEKDKTYIVESFEAEKSNPIDLQQKGWQAILDNFKKYVEENKLRGREKLEHHHHHH” the “soluble on expression in E. coli” value was “soluble”.
With “MAGQIETRQFRTLFISDVHLGSKAAKTDFLLDFLKYHEAETIIMVGDIVDGWRLRRSWYWPQGCNDVVQKLLRKARKGTRIVYIPGNHDEFLREFPGMHFGGIEVAERMIHEAADGKKYLVIHGDEFDVVVRNARLLAYLGDWAYDAAIAINIAIAAVRRRIGLPYWSFSAWAKLQVKHAVNFIGEFQRVVADEARRNNVDGVICGHIHHAIMEDMDGIRYINTGDWVESCTAIAENADGSFELITWMQTSEATAEHASDEMEPVNIPGLIGKHAA” the “soluble on expression in E. coli” value was “not soluble”.
In the case of “PLENQELTPLFGQPDWFLGILPSQAGNLKVLDTARWVMPERYRDDYRDGLKYVISVQGYEWGLAVHQVSRSIRLDPAEVKWRSQRSQRPWLAGTVIEH”, the “soluble on expression in E. coli” value is reported as “not soluble”.
For “MVKPKYSRVLIKLSGEALAGEKGVGIDIPTVQTIAQEIKEVHDSGIEIALVIGGGNLWRGEPASKAGMDRVQADYTGMLGTVMNALVMADALQHAGVDTRVQTAIAMQQVAEPYIRGRALRHLQKGRIVIFAAGVGSPYFSTDTTSALRAAEIEADAILMAKNGVDGVYNDDPRKNADAIKFNELTHMEVLKRGLKIMDSTASSLSMDNDIDLVVFNLNESGNIKRVIFGEQIGTTVTSRISDSEMAGDPLEHHHHHH”, the “soluble on expression in E. coli” value was “soluble”.
With “AIAPTELSRTEKKSLIWLFKEHGLRVDGRSALRSRSVSVAVDVLPSTAGSSRVFVGRTNDVLVGINLELRQYNLPAHAEDDAKRGSIAFSVEFCGVASPEFQGRSTEVLEAELVSFLDTAYAASPEFLADLFCREQRLASDPGTLRVCCWDVYVDVLVLGASGGNILDAVTYAVRAALATTVVPSVYWQDSESGGSWELDDRAEYCALLNASNAPLSASGAFIPPLVRDSRTEHDQVTLVAPRWFIIDPCAEEETLAGCFLSVASDSAQHLRAIWKRGSLPVEPDVVLDAAQQCIRDSAYACQEMDHFISELVATEESESVDDVPG” the “soluble on expression in E. coli” value was “soluble”.
In the case of “MQPTPTQRPEAIVHDEKAQLDFARDMSYGDYLHLDELLGAQHPLSPEHNEMLFIVQHQTSELWMKLMLHELRAAIAAIQQDRLQPAFKMLARVSKILEQLVSAWDVLATMTPPEYSALRPYLAHSSGFQSYQYRQIEYLLGNKNAAMLQPHAHRADLLAQVRAAFEAPSLYDEALRFLARSGLAVPAGALQRDWTQPYRADDQVEQAWLTVYRQSERYWNQYQLGEKLTDLEDAFRLWRFRHVTTVERIIGFKRGTGGTSGVTYLRKMLEVVLFPEIWKLRTDLLEHHHHHH”, the “soluble on expression in E. coli” value is reported as “not soluble”.
With “VTDHVREADDANIDDLLGDLGGTARAERAKLVEWLLEQGITPDEIRATNPPLLLATRHLVGDDGTYVSAREISENYGVDLELLQRVQRAVGLARVDDPDAVVHMRADGEAAARAQRFVELGLNPDQVVLVVRVLAEGLSHAAEAMRYTALEAIMRPGATELDIAKGSQALVSQIVPLLGPMIQDMLFMQLRHMMETEAVNAGERAAGKPLPGARQVTVAFADLVGFTQLGEVVSAEELGHLAGRLAGLARDLTAPPVWFIKTIGDAVMLVCPDPAPLLDTVLKLVEVVDTDNNFPRLRAGVASGMAVSRAGDWFGSPVNVASRVTGVARPGAVLVADSVREALGDAPEADGFQWSFAGPRRLRGIRGDVRLFRVRRGATRTGSGGAAQDDDLAGSSP” the “soluble on expression in E. coli” value was “soluble”.
In the case of “MGSSHHHHHHSSGLVPRGSHMKDTEDAFGHALMDYADGKCSYEMVETRNGKIDVTSISYYFRDHDQWPSMEREAIRYAKGRVVDVGAGAGRHSLYLQDQGFDVTALDISPLAVEVMKHRGVKNAKIASIDEVEPGWDTMILLGNNFGLMRTIDEAMAFLRRFYSESSDDARIIAETTDPLSAGFQSDKGYPGELEIRVIYREYRSEWFRYLLADRQKLREIIKDTGWKIDHFYDIADVDVYCFVLSK”, the “soluble on expression in E. coli” value is reported as “soluble”.
For “MGSDKIHHHHHHMFKIDRLRFGTAGIPISTPKPSTIAGIERVRELGLDAMELEFVRGINIKPELAKKIKYVAEKNDIVLTAHAPYYINLNAKEKEKVEASKRRIIQSAERLYEAGGWSVVFHAGYYLKQPKESVYQKILSALKEIQKELMDKGIKVWLRPELTGKPTQFGDLKELVKLSQELELVLPAIDFAHAHARNKGKCNTEEEWREMLALIENELGREALDNMHIHISGIEYGEKGEKRHLNLEESDLKWEDLLKVLKEFRVKGVIISESPNIEGDAILMKKKWEELKI”, the “soluble on expression in E. coli” value was “not soluble”.
With “SNRVNDPLIFIRDIKPGLKNLNVVFIVLEIGRVTKTKDGHEVRSCKVADKTGSITISVWDEIGGLIQPGDIIRLTRGYASMWKGCLTLYTGRGGELQKIGEFCMVYSEVPNFSEPNPDYRGQQNKGAQSEQKNNSMNSNMGTGTFGPVGNGVHTGPESREHQFSHAGRSNGRGLINPQLQGTASNQTVMTTISNGRDPRRAFKR” the “soluble on expression in E. coli” value was “soluble”.
In the case of “QTSIPTIFVGGDYARAFSTDGFVHRLTAAHLMTKGLVVHVSHAGHVTVQQFGPLKNNPTIQVIFADNHHAKRQARQFATVMQGLAKRYHVTRYNAVGHSSGGNIIFDYLTAQVPQRAQINKFVTIGSTYPGLTTQQLNRLPRSLPILNIAGHVWHTSGDGGVNLQAVLKFSHQLLAAGWSPKTQIIHGSPLTASHSMLHINPQVDLLIIQFLYGN”, the “soluble on expression in E. coli” value is reported as “not soluble”.
In the case of “MHHHHHHGSTKTNSEILEQLKQASDGLLFMSESEYPFEVFLWEGSAPPVTHEIVLQQTGHGQDAPFKVVDIDSFFSRATTPQDWYEDEENAVVAKFQKLLEVIKSNLKNPQVYRLGEVELDVYVIGETPAGNLAGISTKVVET”, the “soluble on expression in E. coli” value is reported as “soluble”.
In the case of “MSFSADALEGGLSSLKLAADKYRSILNDEKTGNIRWRYGGPPIFDTVNKLFEEERTHVQWRYDNPPDFNSVNQLFEEGQTKVWPEGSLEETVQNAIKSWEMEFSHKIRLQDFKTINPEKFKLFVNGREGLSAEETLRLGSYNALLKNSLPEEFQYYKPEEESFESSHDAFRSALPRGFAWEILSVYSGPPVIAFKFRHWGYFEGTFKGHAPTGEMVQFLGLGVLKVDESLRAEEIEIYYDPGELFGGLLKGPPISETKTTDSGDNTAEKQSCPFTH”, the “soluble on expression in E. coli” value is reported as “soluble”.
In the case of “MGSSHHHHHHSSGLVPRGSHMYETYHSGWIECITGSMFSGKSEELIRRLRRGIYAKQKVVVFKPAIDDRYHKEKVVSHNGNAIEAINISKASEIMTHDLTNVDVIGIDEVQFFDDEIVSIVEKLSADGHRVIVAGLDMDFRGEPFEPMPKLMAVSEQVTKLQAVCAVCGSSSSRTQRLINGKPAKIDDPIILVGANESYEPRCRAHHIVAPSDNNKEEL”, the “soluble on expression in E. coli” value is reported as “soluble”.
For “SNAMADWVTGKVTKVQNWTDALFSLTVHAPINPFTAGQFTKLGLEIDGERVQRAYSYVNAPDNPNLEFYLVTVPQGKLSPRLAALKPGDEVQVVSDASGFFVLDEVPDCETLWMLATGTAIGPYLSILQYGQDVARFKNLVLVHAARFAADLSYLPLMLELQQRYEGKLRIQTVVSRENVPGSLTGRVPALIENGELEKAVGLPMDKETSHVMLCGNPQMVRDTQQLLKETRQMTKHLRRRPGHMTAEHYW”, the “soluble on expression in E. coli” value was “soluble”.
In the case of “MTDYDLAKETAAWLNKQLQIRPVLGIVCGSGLGKIGDSLETSITVAYSDIPNFPVGSVKGHAGSLIFGSVNGVSCVCMKGRFHLYEGHTAARATFPMRVFKALGVKIVVLTNAAGGLNPSYRPGDFMVVRDHINLPGLAGANPLTGPNDDTEGERFPSMTSVYDKTLRKYAISAARELGMSYATHEGVYCCVNGPSFETPAECKILRLMGSDAVGMSTAPETIVAKHGGMRCLAVSLISNVIASNCETPAEPTHEEVLRAGEEASARMTALVKLVIEKIRGELPR”, the “soluble on expression in E. coli” value is reported as “soluble”.
With “MTSTFLYKFYPNYNAKNCGDRMPKLMLALDVLDRDRALKIVEDVKDYVDAIKVGYPLVLSTGTEIIKEIKKLCNKEVIADFKVADIPATNEKIAKITLKYADGIIVHGFVGEDSVKAVQDVAKKLNKKVIMVTEMSHPGAVQFLQPIADKLSEMAKKLKVDAIVAPSTRPERLKEIKEIAELPVITPGVGAQGGKIEDILNILDENDYVIVGRAIYQSQNPKEEAKKYKEMLNK” the “soluble on expression in E. coli” value was “soluble”.
For “MEWILFDKDGTLIEFDRSWEKIGVRFVQSLLETFPVHNKEAALRQLGVIKESIDPKSVMGSGSLQQIIQAFNDVTGQDTTDWSKSTSQKLVDERIPEINWVEGVKEALIDLKAKGYQLGIVTSDTKKGVEQFLAHTNAISLFDLIISTEADAYEKPNPKVLSPLFEQYNVDPQKVAIVGDTANDMKTASNANLGMAIGVLTGIATKEELHEADIILNSAADILEALN”, the “soluble on expression in E. coli” value was “not soluble”.
With “MKLIITSGGTTEPIDAVRGITNHSTGQLGKLITERFLQYHHDVTLVTTKTATKPLPNKRLRIIEVETVNDLMAALKDQVPHHDILIHSMAVSDYTPVYMTDLEQVSQADNLNCFLCEHNSEPKISSASDYQVLFLKKTPKVISYVKQWNPNIKLVGFKLLVNVPQEELIKVARASLAKNHADYILANDLVDIQTGMHKALLISNNEVASADTKEAIADLLYERMTKHD” the “soluble on expression in E. coli” value was “not soluble”.
For “MTTHRRRPKHDPKESEQEILNAAKQFLNERPFRELTVDEVMRRTGLKRPAFYVHFRDKHDLALRLVQAIGQELFGIADRWLEGDNPQEDLRRALVGLVEVYMKHSHVLRAFAEAASGDERVNSIYRAFVQEFISAAAQHIREEQATGQIQKDIDIDETARALIWLEERYLSDVFGRMPPADPEVVIRVLQNIWISTLYGSN”, the “soluble on expression in E. coli” value was “soluble”.
